From the DeepSol protein solubility set

Test: soluble on expression in E. coli; label from the status in PepcDB or PDB records
With “MTMKEVEITAESLAKLTPAKQPNDTTTRVNSLSYGLKGDHMIMSTDDDSMFLYDMNTGLRSRSVNSKKYGCSHVKFASDSMCALHGSTKVDNTIRYLSLTDNKYIRYFQGHDKLVTGINVSPMDDMFLSVAEDKTIRLWDLKTHNCIGLMNLSATPIATFDPEGLLFAAGLDNNIIKLYDLRSFDKGPFSSFGPLENEDNVEWTAMRFSPCGKYIMICTNSSQLLLVDAFTGLIKFTLEEHQNAQKIPLMASFTPESSHIMVGSSDGYIYFYDVETGEIALKTLAPNNQTCHIAEFSPQHFVAATADTKLTLWCASDELKAQAQQS” the “soluble on expression in E. coli” value was “not soluble”. With “MLSNDILRSVRYILKANNTDLARILALGNVDATPEQIAIWLRKEEEEGFQRCPDIVLSSFLNGLIYEKRGKDEAAPALTAERRINNNIVLKKLRIAFSLKTDDILAILTGQLFRVSMPEITAMMRAPDHKNFRECGDQFMRYFLRGLAAREHAAK” the “soluble on expression in E. coli” value was “not soluble”. With “MLNRNRNVNKQNGHQKQNGAQKSELRGKNAPPYLERETCLGRNDIFVVEKMIAGGGFGQVYRARNTETQEEVAVKVERATTNDSQRMILESKVLDDMLGSKHFPNVYYIGPYHSYNFIVMQMLGKNIGDIRKMMPNKKISILSSVRIGIQIIEALSLLHSKGWLHRDLKPTNCCLGLDEKRKTVYLVDFGMSRKFRNDNGSLRESRTYCGFRGTTRYCSYRMHDRREQGPVDDLWCLYYSLGELIEGCLPWRDIESADEMAHVKKILKHEDIFHSMPSKFASFGRNLRRLRPANTPDYTKFQNILAYCVKFVDDNAEFEWDVMDY” the “soluble on expression in E. coli” value was “not soluble”. In the case of “MLALPAEFEQFHWMVDMVQNVDMGLIVINRDYNVQVWNGFMTHHSGKQAHDVIGKSLFEIFPEIPVEWFKLKTKPVYDLGCRSFITWQQRPYLFHCRNVRPVTQQAKFMYQNVTLNPMRTPTGAINSLFLSIQDATSEALVSQQASSQ”, the “soluble on expression in E. coli” value is reported as “not soluble”. In the case of “MAHHHHHHMYRNLFDKLKDGPLKISILGSGNWASAISKVVGTNAKNNYLFENEVRMWIRDEFVNGERMVDIINNKHENTKYLKGVPLPHNIVAHSDLASVINDADLLIFIVPCQYLESVLASIKESESIKIASHAKAISLTKGFIVKKNQMKLCSNYISDFLNIPCSALSGANIAMDVAMENFSEATIGGNDKDSLVIWQRVFDLPYFKINCVNETIEVEICGALKNIITLACGFCDGLNLPTNSKSAIIRNGINEMILFGKVFFQKFNENILLESCGFADIITSFLAGRNAKCSAEFIKSTPKKTWEELENEILKGQKLQGTVTLKYVYHMIKEKNMTNEFPLFTVLHKISFENEDPSSLLKTFMNNKINQLNL”, the “soluble on expression in E. coli” value is reported as “soluble”. For “METLTLETPEARAETRTVLHVGCGAANPAKLPGDVFPAGDWRELRLDIDPGVAPDILASITGMPMVADGSVDAVWSSHNLEHLRPHEVPLALAEFHRVLRPGGFLLATLPDLQAVALLVAQGLLEEPAYVSALGPIAPLDILYGFRPAIAEGNDFMAHRTGFTAASLARHLGAAGFAEITVQTDGRFALWARAVRPA”, the “soluble on expression in E. coli” value was “not soluble”. For “MEQQLTIEMIADAFSYDITGFDCGEEALNTFLKEHLKRQHDGQILRGYALVSGDTVPRLLGYYTLSGSCFERGMLPSKTQQKKIPYQNAPSVTLGRLAIDKSVQGQGWGEMLVAHVMRVVWGASKAVGIYGLFVEALNEKAKAFYLRLGFIQLVDENSNLLFYPTKSIEQLFTDDES”, the “soluble on expression in E. coli” value was “not soluble”. In the case of “MVASSCLSMNDHHLLYQNISQDLDLGALLSSEVIQSLWGGYGELVRLIFAKRSVIVKHVKLPKPSEHPRGWNTDRSHQRKLHSYQVEVSWYAHFSGVMDSHCRVPQGLKTFQSENEWLIVMEDLAEAGFPKVITDAKLEHLRACLTWLANFHARYIGVCSDKLWHTGTYWHLATRPDELEALQDTELKKAAQLIDQTLSQAKFKTLVHGDAKLANFCFEQDELSVAAVDFQYVGHGCAMKDVALFMSSAVKPERCAEMEVWVLDTYFAKLQQALMVYQPNLDPDEVEREWRPLFAVAWADFQRFVKGWSPDHWKINPYTEALTRRALAYLRK”, the “soluble on expression in E. coli” value is reported as “not soluble”. With “MMEDVGKEMSKIIQKRDINERYEELVNEVLKDQDVQAFIQANRERLTDEDIRKSYAKLYEFVQEKKKFQVNDPAMIAPGYEPRLMLNFHYIDVTYVPTADLIARQKEEEIRNRVRAMDMPKDVREANLRDFDPSSQGRAKALAEAMQFLREYPATPKEFHKGLYLQGPFGVGKSFLLGAMANALAERGFTTTIVHFPTFTVEMKQAIGRDQVGEKLDAVKKSPILMIDDIGAESMTSWIRDDVLSVILQYRMQEQLVTFFSSNLDLKALEEHLTVTQRGEQEPLKARRIMERVRYLSKEITMTGNDRRNG” the “soluble on expression in E. coli” value was “not soluble”. In the case of “MIETAIYGKTVDDQSRCVHWHLPKDVIAIRFKCCDKYYACFECHQELSSHPLEKYDLLDDANKHLIICGVCRHEMTFAEYYDYNSNLICPNCRSPFNPGCKLHYHLYFQNPPPAMC”, the “soluble on expression in E. coli” value is reported as “not soluble”. In the case of “MFGLVDAVSFYARAEKVFDPSIRHKPVVVLTNNDGCICAVCPIARQLGVPKFVPYFKVKSFLAKHGVVVRSSNYELYADLSERMMNVIARYSDNHYVYSIDESFLHFKNFSCVDNWHEYGHVIRKAVWRETRLPVGVGFGATLTLAKAANHASKKLSGFDGVAVIDDKASRKEILSRMSLTEVWGIGSKLGKRLSILGLKNGWDLANQSPKAMRGQFGVVVERTVNELNGMPCLQWDEIGQDKQEIFSTRSFGQRVTDGHALKAALSSHASIVGAKVRRQGSLIKRLVIFASSSPHDDSYYKKSVIYEFPIATDNILKLVGAISYVFDNIYRQGVSFYRCGVGGVELENSQFQQQDMFSLSVNNPPLMKCYDQINHRYGRGAVEVAIAEKNEKWAMRRNFLSPRSTSNWSEIPKINCLEHHHHHH”, the “soluble on expression in E. coli” value is reported as “not soluble”. In the case of “MGSDKIHHHHHHMFKKVSRDPVHSEIYLYPLEILATDTKVVQRLRFLSQLAGATVVYPGATHTRFAHSLGTMHVAGLYARNLFKESDRIRIVRLAALLHDVGHGPFSHQFDDVVFKRYGYEDGHDEFRNRLITEKLPEEMMRVFNSYNERLKQAVIEDIRESVGEVSLEDAFQEIAKRVVEVYRGEETGSVDFNIIQGPLGADRLDFLLRDSYYSGVGHFAPMNVDRVLRNSLVKEVDGKEILCYHVKVVDNIYSILFSRFMMYKNVYFHKTSRAADLMIQEILLRACEILDLEERLKDLDEFLELTDYSILRELELKGDSETKKLVERFKNRDLWKMVVERPFSAEGFDPSELSLSAARNLIDKIVENIDRVLSSVNVEDSDKSILEEIRDNKEKFFRIDTPYKLTIFHPDEFLQNNVFLYDPKHDEILTVDEYVKKYPAYRLMVSNMIQIVRVYVTEDVREVLFKYGVIPEDGRRVITRW”, the “soluble on expression in E. coli” value is reported as “not soluble”. With “MGHHHHHHSHMAESHPWSGRPSSSPRRSSTFANYAWKHTIKPNRILIRNARPLVINFATDRLPIIKPVDQIILEDAGTVGSALNLPSESICTRPGLLLFGHYNNDVPVTPLVDFKPDEPLQVVLTAHKTIVVPPGEFVMIIVCVNFEKIKSLDLIIHEMSTSNIPLPPTCGQTFKNFNTATPSLEIYGDVIECNDDQKTCVFTAVFPGLHRRCSLHGPLNFMGFVNSVNITGTILRVYYSGVSEAAPDSILVKFKTSSAVAFSKNPCQGHVPSHDDTLIPLVYTGPTLRLLPLETISIPFNTSFVAQNPDLKAIIYDNNLKDIRISATMWTGEQTPILAHNLTAAVKLIHSGTVFARAAFFSTKENKKACTLKLCPSTILLPGGELSLDTSTLPNCFK” the “soluble on expression in E. coli” value was “not soluble”. In the case of “SKLTRKMVLTRAKASELHSVRKLNCWGSRLTDISICQEMPSLEVITLSVNSISTLEPVSRCQRLSELYLRRNRIPSLAELFYLKGLPRLRVLWLAENPCCGTSPHRYRMTVLRTLPRLQKLDNQAVTEEELSRALSEGEEITAAPEREGTGHGGPKLCCTLSSLSSAAETGRDPLDSEEEATSGAQDERGLKPPSRGQFPSLSARDASSSHRGRNVLTAILLLLRELDAEGLEAVQQTVGSRLQALRGEEVQEHAE”, the “soluble on expression in E. coli” value is reported as “soluble”.
